B1: human dual oxidase 1 (hDUOX1), matured protein 20-1551 with N-terminal GFP tag (enzyme, UniProt Q9NRD9-1 20-1551, looked up)
chain: GAQNPISWEVQRFDGWYNNLMEHRWGSKGSRLQRLVPASYADGVYQPLGEPHLPNPRDLSNTISRGPAGLASLRNRTVLGVFFGYHVLSDLVSVETPGCPAEFLNIRIPPGDPMFDPDQRGDVVLPFQRSRWDPETGRSPSNPRDPANQVTGWLDGSAIYGSSHSWSDALRSFSRGQLASGPDPAFPRDSQNPLLMWAAPDPATGQNGPRGLYAFGAERGNREPFLQALGLLWFRYHNLWAQRLARQHPDWEDEELFQHARKRVIATYQNIAVYEWLPSFLQKTLPEYTGYRPFLDPSISSEFVAASEQFLSTMVPPGVYMRNASCHFQGVINRNSSVSRALRVCNSYWSREHPSLQSAEDVDALLLGMASQIAEREDHVLVEDVRDFWPGPLKFSRTDHLASCLQRGRDLGLPSYTKARAALGLSPITRWQDINPALSRSNDTVLEATAALYNQDLSWLELLPGGLLESHRDPGPLFSTIVLEQFVRLRDGDRYWFENTRNGLFSKKEIEEIRNTTLQDVLVAVINIDPSALQPNVFVWHKGDPCPQPRQLSTEGLPACAPSVVRDYFEGSGFGFGVTIGTLCCFPLVSLLSAWIVARLRMRNFKRLQGQDRQSIVSEKLVGGMEALEWQGHKEPCRPVLVYLQPGQIRVVDGRLTVLRTIQLQPPQKVNFVLSSNRGRRTLLLKIPKEYDLVLLFNLEEERQALVENLRGALKESGLSIQEWELREQELMRAAVTREQRRHLLETFFRHLFSQVLDINQADAGTLPLDSSQKVREALTCELSRAEFAESLGLKPQDMFVESMFSLADKDGNGYLSFREFLDILVVFMKGSPEEKSRLMFRMYDFDGNGLISKDEFIRMLRSFIEISNNCLSKAQLAEVVESMFRESGFQDKEELTWEDFHFMLRDHNSELRFTQLCVKGVEVPEVIKDLCRRASYISQDMICPSPRVSARCSRSDIETELTPQRLQCPMDTDPPQEIRRRFGKKVTSFQPLLFTEAHREKFQRSCLHQTVQQFKRFIENYRRHIGCVAVFYAIAGGLFLERAYYYAFAAHHTGITDTTRVGIILSRGTAASISFMFSYILLTMCRNLITFLRETFLNRYVPFDAAVDFHRLIASTAIVLTVLHSVGHVVNVYLFSISPLSVLSCLFPGLFHDDGSEFPQKYYWWFFQTVPGLTGVVLLLILAIMYVFASHHFRRRSFRGFWLTHHLYILLYVLLIIHGSFALIQLPRFHIFFLVPAIIYGGDKLVSLSRKKVEISVVKAELLPSGVTHLRFQRPQGFEYKSGQWVRIACLALGTTEYHPFTLTSAPHEDTLSLHIRAAGPWTTRLREIYSAPTGDRCARYPKLYLDGPFGEGHQEWHKFEVSVLVGGGIGVTPFASILKDLVFKSSVSCQVFCKKIYFIWVTRTQRQFEWLADIIREVEENDHQDLVSVHIYITQLAEKFDLRTTMLYICERHFQKVLNRSLFTGLRSITHFGRPPFEPFFNSLQEVHPQVRKIGVFSCGPPGMTKNVEKACQLINRQDRTHFSHHYENF
modifications: N-linked glycosylation
notes: human DUOX1, matured protein residues 20-1551; Secretion guided by a rat FSHbeta signal peptide before the GFP tag; GFP-tagged protein is 219 kDa; also called GFP-tagged hDUOX1; WT hDOUX1; source: HEK293F, BacMam baculovirus infection; digitonin-solubilised membrane for FSEC; purified with hDUOXA1 (Streptactin beads, peptidisc with NSPr, Superose 6 increase) for cryo-EM; not shown: GFP, …
B2: human dual oxidase maturation factor 1 (hDUOXA1), as in the purified peptidisc complex (natural protein)
chain: MATLGHTFPFYAGPKPTFPMDTTLASIIMIFLTALATFIVILPGIRGKTRLFWLLRVVTSLFIGAAILAVNFSSEWSVGQVSTNTSYKAFSSEWISADIGLQVGLGGVNITLTGTPVQQLNETINYNEEFTWRLGENYAEEYAKALEKGLPDPVLYLAEKFTPRSPCGLYRQYRLAGHYTSAMLWVAFLCWLLANVMLSMPVLVYGGYMLLATGIFQLLALLFFSMATSLTSPCPLHLGASVLHTHHGPAFWITLTTGLLCVLLGLAMAVAHRMQPHRLKAFFNQSVDEDPMLEWSPEEGGLLSPRYRSMADSPKSQDIPLSEASSTKAY
modifications: N-linked glycosylation on N109
notes: human DUOXA1; cDNA cloned into a non-tagged BacMam vector or one with C-terminal MBP-mScarlet tag; the non-tagged one is surmised here; source: HEK293F, BacMam baculovirus infection, co-expressed with hDUOX1 from a bicistronic vector; purified with hDUOX1 (Streptactin beads, peptidisc, Superose 6 increase)

Assays:
[1] = target: the molecule itself; experiment: SEC; fluorescence size-exclusion chromatography (FSEC) of GFP-tagged hDUOX1 co-expressed with hDUOXA1; membrane solubilised in TBS + 1% digitonin, 1 h, 4 °C
[2] = target: B1; experiment: cryo-EM structure; hDUOX1-hDUOXA1 complex in peptidisc (NSPr); 2.5 mM EGTA (low calcium) or 0.5 mM free calcium (high calcium); 100 uM FAD, 500 uM NADPH, 0.5 mM fluorinated octyl-maltoside; conditions: both partners purified

Binder	binding result [1]	stoichiometry N [2]
B1	binds	
B2		1 hDUOXA1 per hDUOX1 (2:2)

Reference: article PMC7794343, “Structures of human dual oxidase 1 complex in low-calcium and high-calcium states” (Nature Communications, 2021)
